Source: patent publication US20090226456A1 (published 2009)

Legend:
Experiment in all cases: flow cytometry on transiently transfected cells
[1] = biological target: T1, RANK on transiently transfected cells (UniProt Q9Y6Q6 30-616, limits assumed)
T1 construct: whole, on cells
T1 sequence (looked up): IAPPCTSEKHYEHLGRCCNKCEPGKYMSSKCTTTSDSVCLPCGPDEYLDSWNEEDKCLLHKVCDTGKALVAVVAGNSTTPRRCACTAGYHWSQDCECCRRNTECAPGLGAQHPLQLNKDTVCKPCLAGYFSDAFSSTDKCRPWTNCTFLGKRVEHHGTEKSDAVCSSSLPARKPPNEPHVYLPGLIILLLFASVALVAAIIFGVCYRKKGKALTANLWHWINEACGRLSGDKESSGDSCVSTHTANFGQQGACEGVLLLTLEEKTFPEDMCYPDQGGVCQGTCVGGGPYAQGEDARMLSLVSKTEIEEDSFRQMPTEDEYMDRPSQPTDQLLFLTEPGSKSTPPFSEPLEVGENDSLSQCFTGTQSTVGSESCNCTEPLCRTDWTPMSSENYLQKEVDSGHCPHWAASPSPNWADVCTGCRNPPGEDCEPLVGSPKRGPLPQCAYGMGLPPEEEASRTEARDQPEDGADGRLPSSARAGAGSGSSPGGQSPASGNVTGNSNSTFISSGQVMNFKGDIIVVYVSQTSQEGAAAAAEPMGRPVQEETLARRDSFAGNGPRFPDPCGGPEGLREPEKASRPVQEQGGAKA
Protocol: (§1) One million cells, in 0.1 ml of FACS buffer (PBS, 0.1% BSA, 0.1% NaN₃), were incubated with 0.1-1 microgram of protein or antibody at RT for 15 min. The cells were washed with 3 ml of FACS buffer, reacted with biotinylated primary antibody, and stained with PE-conjugated secondary antibody at RT for 15 min. Cells were then washed again, resuspended in 0.5 microgram/ml of propidium iodide, and live cells were gated and analyzed on a FACScan using the CellQuest software (BD Biosciences).

[2] = biological target: T2, CD30 on transiently transfected cells (UniProt P28908 19-595, limits assumed)
T2 construct: whole, on cells
T2 sequence (looked up): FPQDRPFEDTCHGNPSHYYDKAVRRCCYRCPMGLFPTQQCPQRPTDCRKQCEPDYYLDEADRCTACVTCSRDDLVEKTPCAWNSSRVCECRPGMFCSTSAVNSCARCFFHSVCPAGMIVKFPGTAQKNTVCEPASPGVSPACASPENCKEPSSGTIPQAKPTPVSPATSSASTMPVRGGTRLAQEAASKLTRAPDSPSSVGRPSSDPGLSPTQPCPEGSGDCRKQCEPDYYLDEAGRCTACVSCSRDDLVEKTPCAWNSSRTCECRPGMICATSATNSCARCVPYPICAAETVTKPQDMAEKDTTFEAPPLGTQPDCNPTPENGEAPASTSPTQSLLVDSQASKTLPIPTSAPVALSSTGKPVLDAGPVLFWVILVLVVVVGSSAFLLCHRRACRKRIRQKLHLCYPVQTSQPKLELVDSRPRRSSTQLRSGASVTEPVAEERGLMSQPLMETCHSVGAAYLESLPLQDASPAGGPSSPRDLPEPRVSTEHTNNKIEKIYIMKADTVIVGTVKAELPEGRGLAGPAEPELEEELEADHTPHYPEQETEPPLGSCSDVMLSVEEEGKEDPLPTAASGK
Protocol: as §1

[3] = biological target: T3, DcR1 on transiently transfected cells (UniProt O14798 26-236, limits assumed)
T3 construct: whole, on cells
T3 sequence (looked up): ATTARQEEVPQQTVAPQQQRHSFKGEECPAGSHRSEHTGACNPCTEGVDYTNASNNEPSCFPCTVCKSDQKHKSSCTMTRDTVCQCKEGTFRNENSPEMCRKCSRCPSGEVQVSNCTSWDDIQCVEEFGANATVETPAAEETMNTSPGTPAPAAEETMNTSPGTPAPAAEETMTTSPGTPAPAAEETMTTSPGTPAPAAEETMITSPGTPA
Protocol: as §1

[4] = biological target: T4, HveA on transiently transfected cells (Homo sapiens (Human), UniProt Q92956 39-283)
T4 construct: also called HVEM/TR2
T4 sequence: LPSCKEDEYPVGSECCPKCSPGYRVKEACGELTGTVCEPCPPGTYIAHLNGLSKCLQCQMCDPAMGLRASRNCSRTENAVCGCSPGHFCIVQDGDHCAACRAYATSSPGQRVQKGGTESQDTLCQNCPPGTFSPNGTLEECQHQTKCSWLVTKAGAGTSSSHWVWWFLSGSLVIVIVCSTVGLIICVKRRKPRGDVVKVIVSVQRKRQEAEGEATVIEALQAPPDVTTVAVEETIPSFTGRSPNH
Protocol: as §1

Measured: binding result

B1: FLAG-tagged soluble TNF-gamma-beta (aa 72-251) (ligand, human)
chain: DYKDDDDKLKGQEFAPSHQQVYAPLRADGDKPRAHLTVVRQTPTQHFKNQFPALHWEHELGLAFTKNRMNYTNKFLLIPESGDYFIYSQVTFRGMTSECSEIRQAGRPNKPDSITVVITKVTDSYPEPTQLLMGTKSVCEVGSNWFQPIYLGAMFSLQEGDKLMVNVSDISLVDYTKEDKTFFGAFLL
notes: also called FLAG-TNF-gamma-beta; FLAG-TL1β
no binding: all assays above
